# Measured values as given in publication PMC5667893, “TRIM5α SPRY/coiled-coil interactions optimize avid retroviral capsid recognition” (PLoS Pathogens, 2017).
# Key:
# [1] = target: disulfide-stabilized HIV-1 CA tubes (HIV-1); experiment: co-sedimentation; purified TRIM5-21R (5 μM) incubated with disulfide-stabilized HIV-1 CA tubes, fractionated by centrifugation, load, soluble and pellet fractions on SDS-PAGE with Coomassie staining, densitometry; done right after purification
# [2] = target: TRIM5-21R F187A (human | rhesus); experiment: anion exchange chromatography + SEC; relative fractions of monomer and dimer of TRIM5-21R proteins during purification; linear salt gradient; dimer to monomers
# [3] = target: TRIM5-21R L190A (human | rhesus); experiment: as above
# [4] = target: the molecule itself; experiment: SEC-MALS; purified CC-L2 proteins, 50 μL injected at 0.5–1 mg/mL; dimer to monomers
Molecule,percent in the pellet with the CA tubes [1],stoichiometry N [4],also measured
"TRIM5-21R (rhesus TRIM5α with its RING domain replaced by that of human TRIM21), wildtype",–,–,percent co-pelleted with the CA tubes [1]: 50%
TRIM5-21R D186A,36%,–,–
TRIM5-21R E197A,61%,–,–
TRIM5-21R F187A,–,–,monomer fraction of the total protein [2]: > 50%
TRIM5-21R L190A,34%,–,monomer fraction of the total protein [3]: > 50%
TRIM5-21R L194A,29%,–,–
"CC-L2 fragment of rhesus TRIM5α (residues 133–300) E197A (domain or fragment, UniProt Q0PF16 133-300, looked up, TRIM5α, rhesus, coiled-coil and L2 linker, residues 133-300; dimeric with a trailing shoulder of monomer by SEC-MALS; also called CC-L2 E197A; source: E. coli BL21(DE3), autoinduction, purified (Ni-NTA, anion exchange, size exclusion); not shown: His, N-terminal, cleaved; SUMO, N-terminal, cleaved) MEEVAQEYHVKLQTALEMLRQKQQEAEKLEADIREEKASWKIQIDYDKTNVSADFEQLREILDWAESNELQNLEKEEEDILKSLTKSETEMVQQTQYMRELISELEHRLQGSMMDLLQGVDGIIKRIENMTLKKPKTFHKNQRRVFRAPDLKGMLDMFRELTDARRYW",–,2,–
"CC-L2 fragment of rhesus TRIM5α (residues 133–300) D186A (domain or fragment, UniProt Q0PF16 133-300, looked up, TRIM5α, rhesus, coiled-coil and L2 linker, residues 133-300; also called CC-L2 D186A; source: E. coli BL21(DE3), autoinduction, purified (Ni-NTA, anion exchange, size exclusion); not shown: His, N-terminal, cleaved; SUMO, N-terminal, cleaved) MEEVAQEYHVKLQTALEMLRQKQQEAEKLEADIREEKASWKIQIDYDKTNVSAAFEQLREILDWEESNELQNLEKEEEDILKSLTKSETEMVQQTQYMRELISELEHRLQGSMMDLLQGVDGIIKRIENMTLKKPKTFHKNQRRVFRAPDLKGMLDMFRELTDARRYW",–,2,–
"CC-L2 fragment of rhesus TRIM5α (residues 133–300) I193A (domain or fragment, UniProt Q0PF16 133-300, looked up, TRIM5α, rhesus, coiled-coil and L2 linker, residues 133-300; also called CC-L2 I193A; source: E. coli BL21(DE3), autoinduction, purified (Ni-NTA, anion exchange, size exclusion); not shown: His, N-terminal, cleaved; SUMO, N-terminal, cleaved) MEEVAQEYHVKLQTALEMLRQKQQEAEKLEADIREEKASWKIQIDYDKTNVSADFEQLREALDWEESNELQNLEKEEEDILKSLTKSETEMVQQTQYMRELISELEHRLQGSMMDLLQGVDGIIKRIENMTLKKPKTFHKNQRRVFRAPDLKGMLDMFRELTDARRYW",–,2,–
"CC-L2 fragment of rhesus TRIM5α (residues 133–300) E201A (domain or fragment, UniProt Q0PF16 133-300, looked up, TRIM5α, rhesus, coiled-coil and L2 linker, residues 133-300; also called CC-L2 E201A; source: E. coli BL21(DE3), autoinduction, purified (Ni-NTA, anion exchange, size exclusion); not shown: His, N-terminal, cleaved; SUMO, N-terminal, cleaved) MEEVAQEYHVKLQTALEMLRQKQQEAEKLEADIREEKASWKIQIDYDKTNVSADFEQLREILDWEESNALQNLEKEEEDILKSLTKSETEMVQQTQYMRELISELEHRLQGSMMDLLQGVDGIIKRIENMTLKKPKTFHKNQRRVFRAPDLKGMLDMFRELTDARRYW",–,2,–
"CC-L2 fragment of rhesus TRIM5α (residues 133–300), wildtype (domain or fragment, UniProt Q0PF16 133-300, looked up, TRIM5α, rhesus, coiled-coil and L2 linker, residues 133-300; His-SUMO leader cleaved with Ulp1 protease; also called TRIM5α_(133–300); wildtype control; source: E. coli BL21(DE3), autoinduction, purified (Ni-NTA, anion exchange, size exclusion); not shown: His, N-terminal, cleaved; SUMO, N-terminal, cleaved) MEEVAQEYHVKLQTALEMLRQKQQEAEKLEADIREEKASWKIQIDYDKTNVSADFEQLREILDWEESNELQNLEKEEEDILKSLTKSETEMVQQTQYMRELISELEHRLQGSMMDLLQGVDGIIKRIENMTLKKPKTFHKNQRRVFRAPDLKGMLDMFRELTDARRYW",–,2,–
